This note sets out measurements from US20160146829A1 (University of California, published 2016).

The target in test [1] is T1, pCp-1B, biotinylated alemtuzumab binding peptide (not fully specified (bridges); also: incubated with sodium tetrathionate (oxidizing) before binding).
T1 construct: Synthetic peptide (Sigma-Genosys); For ELISA it was captured on NeutrAvidin plates; also called Cp-1 (biotinylated peptide)
T1 peptide: ACGSLSPSSCGGK(Biotin)
The experiment in a line: nano-pore optical interferometry (SkiPro); biotinylated peptide on streptavidin chip, whole mAb in solution.

The target of test [2] is T1, pCp-1B, biotinylated alemtuzumab …. Nature of the test: peptide ELISA, biotinylated peptide on NeutrAvidin plate, antibody diluted in TBST, anti-human IgG POD detection.

Ends that are not written are not given here. * marks the point of attachment. Biotin = O=C1N[C@H]2[C@H](CS[C@H]2CCCCC(=O)*)N1

B1: alemtuzumab (antibody, V domains shown)
VH: QVQLQESGPGLVRPSQTLSLTCTVSGFTFTDFYMNWVRQPPGRGLEWIGFIRDKAKGYTTEYNPSVKGRVTMLVDTSKNQFSLRLSSVTAADTAVYYCAREGHTAAPFDYWGQGSLVTVSS
VL: DIQMTQSPSSLSASVGDRVTITCKASQNIDKYLNWYQQKPGKAPKLLIYNTNNLQTGVPSRFSGSGSGTDFTFTISSLQPEDIATYYCLQHISRPRTFGQGTKVEIKR
In general, Kd refers to a measure of binding affinity in units of concentration. A higher Kd goes with weaker binding. What is called koff is the first-order rate constant of dissociation. Read a low koff as slow dissociation. In general, kon refers to a measure of how fast the partners come together. A lower kon goes with slower complex formation. The term EC50 (read off the curve) denotes the concentration at which the effect is half-maximal. On to B1, for which, in test [1], binding was put at a Kd of 163 nM, the koff was found to be 0.00132 s⁻¹ and the kon turned out to be 8130 M⁻¹ s⁻¹. Also, the “EC50 (read off the curve)” value in test [2] was around 0.3 µg/mL.
